Here are results for two proteins from PMC9477738, “PIF4 enhances DNA binding of CDF2 to co-regulate target gene expression and promote Arabidopsis hypocotyl cell elongation” (Nature Plants, 2022).

The series deals with the molecule itself. Nature of the series: SEC; gel filtration of a single MBP fusion protein (self-association); HiLoad 200, 25 mM Bis-Tris pH 8.0, 150 mM NaCl.

B1: MBP-PIF4^bHLH (bHLH DNA-binding domain of PIF4 fused to N-terminal maltose binding protein) (domain or fragment, Arabidopsis thaliana, UniProt Q8W2F3 248-317, looked up)
chain: QRSGSNRRSRAAEVHNLSERRRRDRINERMKALQELIPHCSKTDKASILDEAIDYLKSLQLQLQVMWMGS
notes: codon-optimised for E. coli; also called PIF4 bHLH domain; PIF4^bHLH WT; source: E. coli ArcticExpress, purified (Ni-NTA, size-exclusion chromatography); not shown: MBP, N-terminal, kept
Take B1: the “stoichiometry N” value is 4.

B2: MBP-PIF4^(bHLH (Mu3)) (PIF4 bHLH domain mutated in Interface 3 and Interface 4) (domain or fragment, Arabidopsis thaliana, UniProt Q8W2F3 248-317, looked up)
chain: QRSGSNRRSRAAEVHNLSERRRRDRINAAMAALAALIPHCSKTDKASILDEAIDYLKSLQLQLAVMAMGS
notes: source: E. coli ArcticExpress, purified (Ni-NTA, size-exclusion chromatography); not shown: MBP, N-terminal, kept
For B2, the “stoichiometry N” value is 2.

The term stoichiometry N denotes the number of molecules, sites or subunits per partner or assembly.
